Assay: soluble on expression in E. coli; label from the status in PepcDB or PDB records

Row | Sequence | soluble on expression in E. coli
1 | MSDIAPAAHSPYIPPTPEVGLPLWLLAELTYRCPLQCPYCSNPLDFARQGQELTTEQWFKVMQEAREMGAAQIGFSGGEPLVRQDLAELIAEARRLGFYTNLITSGIGLTEEKIIAFKKAGLDHIQISFQASDEQVNNMLAGSKKAFAQKLEMAKAVKKHGYPMVLNFVTHRHNIDRIDKIIELCLALEADFVELATCQFYGWAHLNRVGLLPTKDQLVRAEAVTNEYRDQLAAQDHPCKLIFVTPDYYEERPKACMNGWGNIFLTVTPDGTALPCHGARQMPIQFPNVREHSMQHIWYDSFGFNRFRGYDWMPEPCRSCDEKEKDFGGCRCQAFMLTGDAANADPVCSKSYHHGIITQARDESETATQTIEELAFRNDRNSRLIAKSS | not soluble
2 | MNDRLCFEVHDNKGYFVFPDTWFGPLLGEFEEVLDAYDADEISETSYINKLRRLAQREPDFIDIHAHLAYAFLEQNAPRKALNAALKGLAAGNRIIPESFCGEIIWMHPENRPYLRALYAAILANVHLQRHQDAVMLTDKILAYNPEDNQGARWLLGSELLRTGDHERAFSVLKEHADEFSPYWYELGLLHFLNGEHVKAATAFRHGFATNTYIAEMLCGNLHPFPLAVWHDFSGSLDTAEDYYATYSPLWGQYPEALLFVNWLYNHSSVLHERSEIIKCAEMLIQEDDFEICESILRQQEHLWKRIDKTLSEEIVQKCRNMNGEYIWPWILPFSAAGMKHSSIQYQMAGDPLEHHHHHH | soluble
3 | MGSDKIHHHHHHMDYDYIIVGAGAAGLSLAYHLGQSALADQTILIIDPNHTRQNDRTWCFWEVGDGPFEAVVSRRWEHLWLYDKHWSARMAIAPYRYKLIQGIDFYQFVDHWLAQRPNITRLQGSVDRLVELPEGVAAVVGGRQYTARYAFNSVYRPVPTPPGYHTWLQHFKGWVIKTPQPVFDAEAATFMDFRIPQAGDVRFGYVLPFDTCTALVEYTIFSPQLVSQTEYEIGLQRYIAEQLGIDRYEITHVEYGVIPMSDVPLPLRPSPHVLNIGTAGGMSKPSTGYTFQRIQRQTRQIVASLTKEGHPFYRQPLFNRHALMDSILLNVLDAGRTPGHRFFANLFRHNPIQRVLRFLDEETTIAEDIALMSTVEMMPFAIAALAVFWGRMSSLGRREWEMG | not soluble
4 | MKALKLYGVEDLRYEDNEKPVIESANDVIVKVRATGICGSDTSRYKKMGPYIKGMPFGHEFSGVVDAIGSDVTHVNVGDKVTGCPAIPCYQCEYCLKGEYARCEKLFVIGSYEPGSFAEYVKLPAQNVLKVPDNVDYIEAAMVEPSAVVAHGFYKSNIQPGMTVAVMGCGSIGLLAIQWARIFGAAHIIAIDIDAHKLDIATSLGAHQTINSKEENLEKFIENHYANQIDLAIESSGAKVTIGQILTLPKKGGEVVLLGIPYDDIEIDRVHFEKILRNELTVCGSWNCLSSNFPGKEWTATLHYMKTKDINVKPIISHFLPLEKGPETFDKLVNKKERFDKVMFTIY | not soluble
5 | MSLNEPLPDRQTELPAVKKENHGEYLQPRDLSKIPNTAFGDQVKRGYSLFVNSQQMRGKYVGNEQNCVNCHMEAGRKANAAPLWAAYMAYPAYRKKNDRVNSYADRIQGCFEYSMNGKAPAYDSPEIVALSAYAYWLAMGGLLDEGHHHHHH | soluble
6 | MEKPVMCKIIDVLDESPTVKTFLLDKEFDFKPGQFAMVWIPEIDEKPFGFSSKNSISIAKVGRFTEKIHSLKKGDLLGIRGPYGNNFEYMGSKILAVAGGIGSAPIISAVEKFSKMDVEVTSIIGGRTKDELLFLDRFEKCGRTFACTDDCSYGFGGFTTEKMLELLSKEKFDMIISCGPEIMMKKVVEIAEKHAIPIQVSLERYMKCGIGICGHCAVDDEGLCICKDGPVFWNDKLKFVSEFGKYKRDASGAIL | not soluble
7 | MTLFEPSTSGNRMGYRGSSNSSSGVGSGGSGSLMTQSIGGPNKHLSASHSTLNTASTHDMMHSKIPKSPSNESLSRSHTSSSGGSQGGHNSNSGSNSGFRPEDAVQTFGAKLVPFEKNEIYNYTRVFFVGSHAKKQAGVIGGANNGGYDDENGSYQLVVHDHIAYRYEVLKVIGKGSFGQVIKAFDHKYQQYVALKLVRNEKRFHRQADEEIRILDHLRRQDSDGTHNIIHMLDYFNFRNHKCITFELLSINLYELIKRNKFQGFSLMLVRKFAYSMLLCLDLLQKNRLIHCDLKPENVLLKQQGRSGIKVIDFGSSCFDDQRIYTYIQSRFYRAPEVILGTKYGMPIDMWSLGCILAELLTGYPLLPGEDENDQLALIIELLGMPPPKSLETAKRARTFITSKGYPRYCTATSMPDGSVVLAGARSKRGKMRGPPASRSWSTALKNMGDELFVDFLKRCLDWDPETRMTPAQALKHKWLRRRLPNPPRDGLESMGGLADHEVCFIIF | not soluble
8 | MGSDKIHHHHHHMLQLNSPHVHNLFNTPFSAAIMDDVVIGLEVHVQLNRLRTKLFCSCPLNYHQSPPNTHVCPVCLGMPGAMPVINKEAVKAAVKVAMALNAEIQPFTVFDRKNYFYPDLPKGFQISQYDRPLALGGYVTIELDGQEKRIQLKRVHMEEDPGKLSYKGSITTAKYSLIDYNRSGAPLLEIVTEPVMNSPKEARLFLNKLRMILEYLEVFDGDLEGAMRVDANISIRGSGRVEIKNISSFKGVEKALSYEIMRQKNLLQRGRSVVRETRHFDEARNITVSLRSKEEEQDYRYFPEPDLVPVLTEEIVREVEGTLPEMPEEKRERLKRQYGIGDNFAKVLILDVKMADYFEEVAKLVDPKLAASWIVDVLRGELNYRDWSFAKCWEVFKPEEFAKLLKYFEEDRITEKGVVEVIRTKLDEGGEIDAIIQKKGLFAIPKEEIIKFCKEAIEENPKAVEDYLSGKRQALNFLVGQVMKKTRGRADPADTAKLIEEMLS | not soluble
9 | MQSIEHFEPQFLSFIQKEMVQDLAHDINHVLRVVSMAKRLCVEEKGKEAVVIPAAYLHDCFSFAKDHSNRSQSSAFAADKALVFLKEIGYPSEYYDEIHHAIVAHSFSAKVETRTLEAKIVQDADRLDALGAIGIARCLQVSTKLNSPLYSIDDPFCYHREPNDKAYTIDHFYAKLLTLANTMKTTSAVAEAEKRTQYMRDYLTQLESELLEHHHHHH | soluble
10 | MGSSTGFHHADHVNYSSNLNKEEILEQLLLSYEGLSDGQVNWVCNLSNASSLIWHAYKSLAVDINWAGFYVTQASEENTLILGPFQGKVACQMIQFGKGVCGTAASTKETQIVPDVNKYPGHIACDGETKSEIVVPIISNDGKTLGVIDIDCLDYEGFDHVDKEFLEKLAKLINKSCVFK | soluble
11 | MSLNLKDLIERERNCQKKKAFNCSFLDYLDIVKENPEVCKFAHKRIYDLIIKQGFHIVDKNESIKKYNFFGEDFFGIDKTLMKIVNYFYAASMEGEESKQVLYLVGPVGSGKSSIVEAIKIALEDSEPIYALENCPMREEPLHLIPNNLRRKFEKELDLKIEGDLCPVCTYRLREEFNGEIEKFPVQKIGFSIKERRGVGVVPPVDPNNQDTSVLVGSVDISKMDIYSEHDPRIFSLNGAFNVGNRGIVEFIEIFKNDIEYLHSIITATQEKLIPSPGKGSMVYYDGVIIAHSNEGEWNKFKSDPTNEAILDRIVKIEVPYCLELDEEKKIYKKILKNSNFQVHIAPHTIDVAAMFAILTRLNSSEKVDLMTKLKIYNGEEIVEKASIKKIEREELEEECRQKEGMTGVSTRFIIKAINNAICESNCSCINPIDVINSLITAVKEKDLCEEVEDKYISFLEDVVRKEYNKILYKEITKFFIESFNSQGEALFNNYLDHAEAYVNKVYLKDNITGENLDPDEEFMREIEEEIGVTENSSKGFRKDVVAYILYLIRKGEEINCNCYKPLKEAIERKLISSSREISRIINPSKIRNKAQDEKYKFIVEKLKNNGYCDTCAFYTLRYAANNFWRDEGHHHHHH | soluble
12 | GNSKKHNLILIGAPGSGKGTQCEFIKKEYGLAHLSTGDMLREAIKNGTKIGLEAKSIIESGNFVGDEIVLGLVKEKFDLGVCVNGFVLDGFPRTIPQAEGLAKILSEIGDSLTSVIYFEIDDSEIIERISGRCTHPASGRIYHVKYNPPKQPGIDDVTGEPLVWRDDDNAEAVKVRLDVFHKQTAPLVKFYEDLGILKRVNAKLPPKEVTEQIKKIL | soluble
13 | PTSSTTAALVMGDALAVALLEARGFTAEDFALSHPGGALGRKLLLRVNDIMHTGDEIPHVGLQATLRDALLEITRKNLGMTAICDDDMNIIGIFTDGDLRRVFDTGVDMRDASIADVMTRGGIRIRPGTLAVDALNLMQSRHITCVLVADGDHLLGVVHMHDLLRA | soluble
14 | MAHHHHHHMGKKRFYAVAVGRQTGVFSTWEECQKQVSGFSGARFKSFLTLQEAQAYASGVQDVEPGSVGTSLVADSHTPVLVGVKRALSLDVTLDAVEVDAADDGNEVDDESKQQVLSPEWVEARKREAVVVYVDGACRNNGSRSRERRPRAGFGGFYGDGDSRNFKFPLPAHEPQTNQRAELSALIHVLRVALDSHPCYNLCVYSDSKYTVMGVNSYLHRWERNGFKTAGGGDVANIDLWSQLTKLRNRHLSRCAERFTMEFRFKASLAAIAARAVALQLKHVPGHAGVYGNEMADRLAVEACESPFG | not soluble
15 | MRGSHHHHHHGLVPRGSMKITVLGCGALGQLWLTALCKQGHEVQGWLRVPQPYCSVNLVETDGSIFNESLTANDPDFLATSDLLLVTLKAWQVSDAVKSLASTLPVTTPILLIHNGMGTIEELQNIQQPLLMGTTTHAARRDGNVIIHVANGITHIGPARQQDGDYSYLADILQTVLPDVAWHNNIRAELWRKLAVNCVINPLTAIWNCPNGELRHHPQEIMQICEEVAAVIEREGHHTSAEDLRDYVMQVIDATAENISSMLQDIRALRHTEIDYINGFLLRRARAHGIAVPENTRLFEMVKRKESEYERIGTGLPRPW | soluble
16 | SEDDAPVIYGLEFQARALTPQTAETDAIRFLVGTQSLKYDNQIHIIDFDDENNIINKNVLLHQAGEIWHISASPADRGVLTTCYNRTSDSKVLTCAAVWRMPKELESGSHESPDDSSSTAQTLELLCHLDNTAHGNMACVVWEPMGDGKKIISLADNHILLWDLQESSSQAVLASSASLEGKGQLKFTSGRWSPHHNCTQVATANDTTLRGWDTRSMSQIYCIENAHGQLVRDLDFNPNKQYYLASCGDDCKVKFWDTRNVTEPVKTLEEHSHWVWNVRYNHSHDQLVLTGSSDSRVILSNMVSISSEPFGHLVDDDDISDQEDHRSEEKSKEPLQDNVIATYEEHEDSVYAVDWSSADPWLFASLSYDGRLVINRVPRALKYHILL | soluble
17 | GAPSQGATANAETQTTIPLGDTSQNALDWPGVYEGVLPCASCEGIQTTLTLQADNSFELKSIYLGKDESIFKVAGKFDWDSNGSKITLSDGSKYLVGENQLLMLDTEGNRITGGLAEHYILKKKGM | soluble
18 | MKLDLDAFRIQPGKKPNLAKRPTRIDPVYRSKGEYHELLANHVAELSKLQNVLYADNRYAILLIFQAMDAAGKDSAIKHVMSGVNPQGCQVYSFKHPSATELEHDFLWRTNCVLPERGRIGIFNRSYYEEVLVVRVHPEILEMQNIPHNLAHNGKVWDHRYRSIVSHEQHLHCNGTRIVKFYLHLSKEEQRKRFLERIDDPNKNWKFSTADLEERKFWDQYMEAYESCLQETSTKDSPWFAVPADDKKNARLIVSRIVLDTLESLNLKYPEPSPERRKELLDIRKRLENPENGK | not soluble
19 | MSLGNPAAMLAAYNTSTQVAPQPQLGPRAGEVQLSSEQQAMIDYVLAGKDVIVDATVGSGKTTAIQRLCSIMGADHDVLYLTYSKLLKVDAQQRVRGAKVQNYHGIVYPHLLKAGIKCGISESIREFNKNFKHISRTFPSYDLLVIDEYQDINEDYAELLRNIKSVNPLMQIVMVGDLEQKVRSDTEGHHHHHH | not soluble
